Where “and” joins values, the source holds several entries; their conditions need not be identical. Equal values may be shown once.

Assay [1] concerns the target tcSOD truncation mutant M202 (residues 1-201) (not stated (metagenomic library of hot springs in Tengchong, China)). Put plainly: cross-linking; glutaraldehyde, 20 mM sodium phosphate pH 7.4, after heating at 25°C or 80°C for 50 min, cross-linked 1 or 5 min; read by 12.5% SDS-PAGE.
In assay [2] the target is wild type tcSOD (hyperthermostable Fe-superoxide dismutase from Tengchong hot springs) (not stated (metagenomic library of hot springs in Tengchong, China)). In words: SEC; Superdex 200HR 10/30, 20 mM sodium phosphate pH 7.4, 25°C, 0.5 ml/min; protein 0.1 to 1.0 mg/ml, not cross-linked. (Size exclusion chromatography separates by hydrodynamic size, large species first.)
Assay [3] shares this target. Put plainly: cross-linking; 0.5 mM DSP for 10 min after 50 min at the given temperature, without DTT; read by SDS-PAGE and native-PAGE.
Assay [4] has the same target. In words: native gel or EMSA; 10% native-PAGE (also 5-15% gradient), 20 mM PBS pH 7.4, 0.1-1.0 mg/ml (mutants 1 mg/ml), bands quantified by GIS software; step: tetramers to high-order oligomers; fractions almost unchanged with 0-5 M NaCl, pH 3-11 or 80°C for 60 min.
For assay [5] the target is unchanged. In words: native gel or EMSA; 10% native-PAGE (also 5-15% gradient native-PAGE), 20 mM PBS pH 7.4, 0.1-1.0 mg/ml (mutants 1 mg/ml); the predominant oligomer (quaternary structure). (In general: A gel shift assay detects complexes by their altered migration in electrophoresis.)
The target is the same in assay [6]. Put plainly: cross-linking; glutaraldehyde, 20 mM sodium phosphate pH 7.4, after heating at 25°C or 80°C for 50 min, cross-linked 1 or 5 min; read by 12.5% SDS-PAGE.
For assay [7] the target is unchanged. Put plainly: native gel or EMSA; tetramers and high-order oligomers separated by ion exchange (Resource Q), concentrated to 0.3 mg/ml, heated at 80°C or 95°C, then 10% native-PAGE; step: tetramers to octamers.

For the substance “tcSOD truncation mutant M202 (residues 1-201) (domain or fragment)”, in assay [1], the stoichiometry N (in general, the number of molecules, sites or subunits per partner or assembly) was 4 and 2.

“wild type tcSOD (hyperthermostable Fe-superoxide dismutase from Tengchong hot springs) (enzyme)”: the stoichiometry N was 4 in assay [2]; 2 in assay [3]; above 8 in assay [4]; 4 in assay [5]; 4 and 2 in assay [6]; 8 in assay [7]. Moreover, the fraction of high-order oligomers (at 0.1 mg/ml) in assay [4] worked out at 1.5%. Also, the fraction of high-order oligomers (at 1.0 mg/ml) in assay [4] came to 5%.

The record behind these values is paper PMC4196948.
